Assay results reported in patent US10829561B2, “Antibodies targeting quiescin sulfhydryl oxidase (QSOX1) and uses of same” (Yeda Research and Development Co. Ltd., priority 2015, dated 2020).
“Also recorded” adds a separate entry of the source.

T1: MmQSOX1 TLPG(138-141)VFPV mutant (Mus musculus, UniProt Q8BND5, G141V/L139F/T138V)
T1 construct: made in house
T1 sequence (Q8BND5 36-550 T138V/L139F/G141V limits assumed): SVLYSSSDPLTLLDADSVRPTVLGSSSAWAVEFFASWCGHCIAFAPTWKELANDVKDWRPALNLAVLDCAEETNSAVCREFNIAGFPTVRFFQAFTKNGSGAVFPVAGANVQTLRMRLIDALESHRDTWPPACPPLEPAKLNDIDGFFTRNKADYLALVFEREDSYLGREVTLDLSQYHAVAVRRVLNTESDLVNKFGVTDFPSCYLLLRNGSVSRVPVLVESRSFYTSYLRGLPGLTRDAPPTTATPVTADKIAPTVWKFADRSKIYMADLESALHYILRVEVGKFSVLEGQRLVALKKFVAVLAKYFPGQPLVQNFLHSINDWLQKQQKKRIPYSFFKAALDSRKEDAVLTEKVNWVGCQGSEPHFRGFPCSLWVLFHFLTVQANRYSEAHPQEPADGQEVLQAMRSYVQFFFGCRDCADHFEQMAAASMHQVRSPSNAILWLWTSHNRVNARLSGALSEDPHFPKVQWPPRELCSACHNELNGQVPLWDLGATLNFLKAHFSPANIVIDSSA

T2: MmQSOX1 A116P mutant (Mus musculus, UniProt Q8BND5)
T2 construct: made in house
T2 sequence (Q8BND5 36-550 A119P limits assumed): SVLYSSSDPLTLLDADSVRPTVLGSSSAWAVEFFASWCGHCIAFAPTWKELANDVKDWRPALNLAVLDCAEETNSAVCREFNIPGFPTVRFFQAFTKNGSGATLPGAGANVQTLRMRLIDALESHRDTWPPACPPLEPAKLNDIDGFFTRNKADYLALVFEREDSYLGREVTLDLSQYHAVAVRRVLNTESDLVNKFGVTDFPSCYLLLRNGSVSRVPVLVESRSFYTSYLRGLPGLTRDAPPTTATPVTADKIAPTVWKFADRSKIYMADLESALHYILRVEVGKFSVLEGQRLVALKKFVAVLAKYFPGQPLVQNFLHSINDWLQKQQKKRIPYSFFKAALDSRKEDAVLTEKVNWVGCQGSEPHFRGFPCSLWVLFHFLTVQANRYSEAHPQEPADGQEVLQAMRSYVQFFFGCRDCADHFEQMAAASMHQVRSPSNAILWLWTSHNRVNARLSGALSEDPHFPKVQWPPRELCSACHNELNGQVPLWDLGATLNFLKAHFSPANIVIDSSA

T3: CpQSOX1 (Cavia porcellus, UniProt O08841)
T3 construct: The CpQSOX1 protein spans residues 34-547 of Cavia porcellus QSOX1; His-tag with thrombin site (inferred from the pET-15b vector, NdeI/BamHI cloning); made in house; host or cells: E. coli
T3 sequence (O08841 34-547): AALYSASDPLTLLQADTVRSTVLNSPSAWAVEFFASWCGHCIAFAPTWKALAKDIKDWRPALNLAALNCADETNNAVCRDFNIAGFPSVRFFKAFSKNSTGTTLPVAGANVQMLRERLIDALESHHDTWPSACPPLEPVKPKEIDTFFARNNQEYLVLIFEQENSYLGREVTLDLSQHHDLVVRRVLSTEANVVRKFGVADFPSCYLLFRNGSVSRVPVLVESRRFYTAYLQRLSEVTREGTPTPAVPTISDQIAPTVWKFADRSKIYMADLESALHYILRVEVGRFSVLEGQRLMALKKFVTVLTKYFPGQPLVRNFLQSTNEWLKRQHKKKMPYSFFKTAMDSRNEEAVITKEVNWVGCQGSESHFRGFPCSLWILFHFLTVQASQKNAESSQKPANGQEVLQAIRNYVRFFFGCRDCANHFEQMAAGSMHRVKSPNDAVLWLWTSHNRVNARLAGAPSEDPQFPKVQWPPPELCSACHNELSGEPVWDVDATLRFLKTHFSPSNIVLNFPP

T4: RnQSOX1 (Rattus norvegicus, UniProt Q6IUU3)
T4 construct: made in house
T4 sequence (Q6IUU3 33-750): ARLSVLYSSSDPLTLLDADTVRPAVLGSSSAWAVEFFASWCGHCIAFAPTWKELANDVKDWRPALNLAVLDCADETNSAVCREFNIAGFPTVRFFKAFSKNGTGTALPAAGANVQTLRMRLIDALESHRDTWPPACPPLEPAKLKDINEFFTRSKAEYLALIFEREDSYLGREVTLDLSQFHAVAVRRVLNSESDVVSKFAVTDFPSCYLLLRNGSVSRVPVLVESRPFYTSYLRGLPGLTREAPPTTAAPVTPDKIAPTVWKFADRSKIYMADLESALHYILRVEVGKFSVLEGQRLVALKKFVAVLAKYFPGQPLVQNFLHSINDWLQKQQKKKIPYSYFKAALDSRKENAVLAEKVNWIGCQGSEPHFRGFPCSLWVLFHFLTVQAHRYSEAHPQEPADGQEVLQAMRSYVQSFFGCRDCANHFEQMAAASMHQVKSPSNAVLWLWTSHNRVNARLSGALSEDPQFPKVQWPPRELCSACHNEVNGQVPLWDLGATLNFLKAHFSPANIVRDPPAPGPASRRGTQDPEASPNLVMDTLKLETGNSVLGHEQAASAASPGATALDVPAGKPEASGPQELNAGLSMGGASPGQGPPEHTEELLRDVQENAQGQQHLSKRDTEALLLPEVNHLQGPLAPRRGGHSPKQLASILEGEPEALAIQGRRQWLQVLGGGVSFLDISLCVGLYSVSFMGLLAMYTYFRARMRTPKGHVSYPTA

T5: MmQSOX1 (Mus musculus, UniProt Q8BND5)
T5 construct: Recombinant MmQSOX1 is truncated at the carboxy-terminus and so migrates faster than endogenous secreted MmQSOX1; made in house
T5 sequence (Q8BND5 36-550 limits assumed): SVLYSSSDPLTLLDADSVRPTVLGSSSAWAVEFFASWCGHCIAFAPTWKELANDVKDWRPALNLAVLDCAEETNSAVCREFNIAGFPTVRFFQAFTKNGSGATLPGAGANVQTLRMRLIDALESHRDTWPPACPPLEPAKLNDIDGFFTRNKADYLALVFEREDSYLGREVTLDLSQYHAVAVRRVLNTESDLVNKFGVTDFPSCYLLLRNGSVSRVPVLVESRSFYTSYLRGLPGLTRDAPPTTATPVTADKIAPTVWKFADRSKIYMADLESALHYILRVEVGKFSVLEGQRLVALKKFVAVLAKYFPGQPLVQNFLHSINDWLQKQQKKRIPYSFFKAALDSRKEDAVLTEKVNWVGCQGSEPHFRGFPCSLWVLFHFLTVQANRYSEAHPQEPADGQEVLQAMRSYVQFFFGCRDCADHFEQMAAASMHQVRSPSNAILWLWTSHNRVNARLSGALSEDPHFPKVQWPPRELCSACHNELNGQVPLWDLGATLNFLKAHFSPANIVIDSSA

T6: HsQSOX1 (Homo sapiens, UniProt O00391)
T6 construct: made in house
T6 sequence (O00391 33-546 limits assumed): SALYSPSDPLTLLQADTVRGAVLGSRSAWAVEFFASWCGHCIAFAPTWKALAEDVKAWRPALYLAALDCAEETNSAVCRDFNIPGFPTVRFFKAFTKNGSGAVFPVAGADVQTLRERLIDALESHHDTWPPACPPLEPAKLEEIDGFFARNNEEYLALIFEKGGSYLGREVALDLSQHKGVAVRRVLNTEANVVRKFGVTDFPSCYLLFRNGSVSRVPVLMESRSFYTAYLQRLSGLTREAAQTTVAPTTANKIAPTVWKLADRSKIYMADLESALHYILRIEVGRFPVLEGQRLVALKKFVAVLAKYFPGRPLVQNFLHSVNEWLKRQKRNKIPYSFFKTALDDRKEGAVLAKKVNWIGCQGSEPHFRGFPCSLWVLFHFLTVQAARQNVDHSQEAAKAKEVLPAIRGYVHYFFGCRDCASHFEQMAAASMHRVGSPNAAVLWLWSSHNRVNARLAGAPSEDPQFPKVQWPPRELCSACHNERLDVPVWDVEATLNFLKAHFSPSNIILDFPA


Experiments:
[1] = tested on: 4T1 murine mammary carcinoma; assay: Murine 4T1 breast cancer model, tumor volume; format: in vivo, BALB/c female mice; conditions: 8 mg/kg doxorubicin once a week, intraperitoneal, vs control mice
Procedure: 4T1 mCherry cells were suspended in Hanks' Balanced Salt Solution at a concentration of 2.5×10^6 cells/ml and mixed 1:1 with Cultrex® Basement Membrane Extract. 250,000 cells were injected into the mammary fat pad of 45 BALB/c female mice. Animals were divided into 5 groups containing 9 animals each (as depicted in Table 1B, below). Treatments were administered by intraperitoneal injection, beginning 3 days after cell injection. Tumor dimensions (x,y,z) were measured with a caliper twice a week. Tumor volumes were calculated according to: […]. Animals were weighed once a week. Twenty days post cell injection all animals were sacrificed by CO2 asphyxiation. Tumors and lungs were removed into 4% formaldehyde solution and prepared for histology.
The ability of an antibody inhibiting MmQSOX1 to control tumor growth and metastasis was evaluated in vivo in the 4T1 murine mammary carcinoma breast cancer model previously described [Pulaski and Ostrand-Rosenberg (2001) Mouse 4T1 breast tumor model. Curr. Protoc. Immunol. Chapter 20, Unit 20.2.]. Mice were injected with 4T1 cells together with matrigel, which aided in formation of a localized tumor, and then divided into five groups (as described in Table 1B, above). […] Tumor volumes were measured twice a week. Animals were sacrificed after 20 days, and their tumors and lungs were removed for evaluation.

[2] = biological target: T1, MmQSOX1 TLPG(138-141)VFPV mutant; assay: Oxygen consumption assay, MmQSOX1 mutant mimicking HsQSOX1; format: biochemical; conditions: 250 nM MAb492.1, 200 μM DTT
Procedure: (§1) Reactions were initiated by DTT injection, and oxygen consumption rates were obtained from initial slopes. […] Measurements were performed 3 times, and resulting rates were averaged. For each mutant, the rate in the presence of inhibitory antibody was divided by the rate in the absence of antibody to get percent activity.
(§2) The first mutant, A116P, was inhibited by about 60% (FIG. 2D), and the second mutant, TLPG(138-141)VFPV, by about 50%.

MmQSOX1 A116P mutant = biological target: T2, MmQSOX1 A116P mutant; assay: as above; format: biochemical; conditions: 250 nM MAb492.1, 200 μM DTT
Procedure: as §1, §2

CpQSOX1 = biological target: T3, CpQSOX1; assay: Oxygen consumption assay of QSOX1 activity and inhibition (DTT substrate); format: biochemical; conditions: even at 1 μM antibody, 10:1 molar ratio of antibody to enzyme
Procedure: as §1
(§3) Three mammalian QSOX1 enzymes, from common experimental organisms and having 78-79% sequence identity with HsQSOX1, were chosen: Mus musculus QSOX1 (MmQSOX1), Rattus norvegicus QSOX1 (RnQSOX1), and Cavia porcellus (CpQSOX1). Enzyme activity was assessed in an oxygen consumption assay on the model substrate dithiothreitol (DTT).

RnQSOX1 = biological target: T4, RnQSOX1; assay: as above; format: biochemical; conditions: even at 1 μM antibody, 10:1 molar ratio of antibody to enzyme
Procedure: as §1, §3

[3] = tested on: mouse embryonic fibroblasts (MEFs); assay: Epithelial cell adhesion to mouse fibroblast monolayer; format: cell-based; conditions: 250 nM or 1 μM antibody; HEK 293T adhering cells
Procedure: (§4) The assays were conducted essentially as previously described [Ilani T. et al. (2013), supra]. Instead of human fibroblasts, mouse fibroblasts were grown for three days in the presence of various antibodies. HEK 293T cells were used as adhering cells.
(§5) QSOX1 and laminin are secreted from quiescent fibroblasts into the ECM, where QSOX1 promotes laminin incorporation, and consequently the adherence of epithelial cells to the fibroblast monolayer. Thus, intact laminin networks in the ECM and cell adherence indicate functional QSOX1 activity in the ECM [Ilani T. et al. (2013), supra]. Inventors first verified that MmQSOX1 is secreted from confluent mouse embryonic fibroblasts (MEFs) (FIG. 4A). Next, extracellular laminin secreted by MEFs grown for three days in the presence of MAb492.1, MAb316.1, or MAb492gen was stained. […] A quantitative assay of epithelial cell adhesion to MEF monolayers was performed next. Fluorescently labeled epithelial cells were added to MEFs grown in the absence or presence of the antibodies, and adherent cells were quantified.

MmQSOX1 = biological target: T5, MmQSOX1; assay: Oxygen consumption assay of QSOX1 activity and inhibition (DTT substrate); format: biochemical; conditions: 10:1 molar ratio of antibody to enzyme
HsQSOX1 = biological target: T6, HsQSOX1; conditions: Grossman I. et al. (2013); cited from earlier work
[4] = tested on: mouse embryonic fibroblasts (MEFs); assay: Laminin immunostaining in mouse fibroblast cultures; format: cell-based; conditions: MEFs grown for three days in the presence of antibody
Procedure: as §4, §5

| Inhibition of MmQSOX1 TLPG(138-141)VFPV mutant [2] | Inhibition of MmQSOX1 A116P mutant (MmQSOX1 A116P mutant) | Effect on CpQSOX1 activity (CpQSOX1) | Effect on RnQSOX1 activity (RnQSOX1) | Molecule | Tumor volume [1] | Epithelial cell adherence to MEF monolayer [3] | Inhibition of MmQSOX1 at 1 μM antibody (MmQSOX1) | Concentration inhibiting HsQSOX1 activity in vitro and in cell culture (HsQSOX1) | Laminin network in ECM [4] |
| --- | --- | --- | --- | --- | --- | --- | --- | --- | --- |
|  |  |  |  | COc1cccc2c1C(=O)c1c(O)c3c(c(O)c1C2=O)C[C@@](O)(C(=O)CO)C[C@@H]3O[C@H]1C[C@H](N)[C@H](O)[C@H](C)O1 [doxorubicin, reference compound] | smaller tumors than control mice |  |  |  |  |
| about 50% | about 60% | no effect | no effect | MAb492.1: previously published inhibitory monoclonal antibody blocking the Trx CXXC redox-active site of human QSOX1 (antibody, V domains shown) VL: DVVMTQTHKFMSTSVGDRVSITCKASQDVSTAVAWYQQKSGQSPKLLIHSASYRYTGVPDRFTGSGSGTDFTFTISSVQAEDLAVYYCQQHYSIPLTFGAGTKLELK VH: QVQLKQSGPGLVAPSQSLSITCTVSGFSLTGYGVNWVRQSPGKGLEWLGMIWGDGRTDYKSALKSRLSITKDNSKSQVFLKMNSLQTDDTARYFCASDYYGSGSFAYWGQGTLVTVSA |  | did not affect | no effect; also recorded: No inhibition at 1 μM | near-stoichiometric concentration | did not affect |
